Measurements published in US20260217787A1 (MONSANTO TECHNOLOGY, published 2026).

Experiments:
[1] = biological target: SfABCc2 (Spodoptera frugiperda); assay: cell-based or functional assay
[2] = biological target: Spodoptera_frugiperda_ABC_transporter (Spodoptera frugiperda); assay: cell-based or functional assay
[3] = biological target: HzABCa7 (Helicoverpa zea); assay: cell-based or functional assay
[4] = biological target: SfABCa3 (Spodoptera frugiperda); assay: cell-based or functional assay
Cry3Aa = biological target: T1, Cry3Aa (Bacillus thuringiensis, UniProt P0A379 1-644); assay: yeast two-hybrid
T1 sequence: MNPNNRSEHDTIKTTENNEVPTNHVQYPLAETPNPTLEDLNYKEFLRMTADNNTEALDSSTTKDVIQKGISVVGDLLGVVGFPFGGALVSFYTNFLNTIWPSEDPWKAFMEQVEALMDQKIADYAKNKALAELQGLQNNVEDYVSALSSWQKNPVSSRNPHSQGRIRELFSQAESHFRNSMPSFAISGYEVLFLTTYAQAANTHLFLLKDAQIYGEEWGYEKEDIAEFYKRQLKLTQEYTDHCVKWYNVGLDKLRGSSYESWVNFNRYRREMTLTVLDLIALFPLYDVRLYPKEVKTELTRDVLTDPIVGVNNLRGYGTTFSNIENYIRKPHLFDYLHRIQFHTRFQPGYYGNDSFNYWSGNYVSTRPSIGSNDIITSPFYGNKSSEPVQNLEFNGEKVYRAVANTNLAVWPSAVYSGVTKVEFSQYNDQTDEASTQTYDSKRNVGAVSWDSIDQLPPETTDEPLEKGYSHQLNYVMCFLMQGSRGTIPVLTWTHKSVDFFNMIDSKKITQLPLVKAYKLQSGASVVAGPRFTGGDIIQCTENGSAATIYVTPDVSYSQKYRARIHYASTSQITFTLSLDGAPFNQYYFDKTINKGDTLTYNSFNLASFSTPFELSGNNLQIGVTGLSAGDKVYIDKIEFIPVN

Cry1Ac as used in the Sf9 cytotoxicity assays (from UniProt P05068 29-623) (ligand)
Sytox Green Fluresence, treatment (control buffer 645) [1]: 20700
Sytox Green Fluresence, treatment (control buffer 645) [2]: 18600

Cry2Ab as used in the Sf9 cytotoxicity assays (ligand)
Sytox Green Fluresence, treatment (control buffer 5398) [3]: 55300
Sytox Green Fluresence, treatment (control buffer 5398) [4]: 30600

B1: Aminopeptidase Fragment 5 (receptor)
chain: GFPVVNAVFNGKNVTFSQKRFLYTGNNNTQWYIPVTYRLSNSSSYETFWLAPNSSVTILNNLTDKDWLIVNDDSRGYYRVKYCKRLTQRIQSLLNQNHTQISELNRAQILDDSLNLARAGYIKYSEAFELLEYLKNETSYFPWFTTIKNMDYLVTRLGANTELGKRTNAMILDLISQISANISTTKWEEIDQVTTLKLQRVWADACKRGQASCISETKRLFQALRLNKTSVNPNIRDVVYCNALRNSNNIAADWEFLWNRLLISIHPQEDLYILLSLGCTTHKPYLTRLLDATINSTSVIKLQNLYTVWNSVGSASKEGLDLAFEYFVNNYKKIIEYYPDGISLLSQLANRFTTNAEVTKLQQFADRLEKNSTIRAVANSALTTARQNLQFRARIEDDLNDYFKIDNSGSSV
notes: Yeast two-hybrid construct; also called Aminopeptidase N fragment 5
binding result (Cry3Aa): no binding
